What was measured:
[1] = biological target: CD95(1–158)-mCherry (human); experiment: SEC; concentrated serum-free supernatants of transfected HEK cells on Sephacryl S-300 and S-200 High Resolution columns in PBS, 0.5 mL/min; fractions analysed by immunoblot with anti-DsRed
[2] = biological target: CD95(1–66)-mCherry (human); experiment: as above

| stoichiometry N [1] | stoichiometry N [2] | Substance |
| --- | --- | --- |
| 3 |  | CD95(1–158)-mCherry (domain or fragment) |
|  | 2 | CD95(1–66)-mCherry (domain or fragment) |

Source: paper PMC3457997
